Test: yeast display, Sf9 membrane polyspecificity reagent, FACS + sequencing; frameworks hold sequencing errors
Summary of the method: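 Sorting gates, low and high (top ~1%), were placed on anti-HA fluorescence to track expression and on streptavidin fluorescence to track reagent binding. A clone's polyreactivity label is taken from the gate it came out of. The reagent was 10% biotinylated, detergent-solubilized Sf9 membrane, applied for 1 hour at 4 °C to galactose-induced yeast display cells.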

## QVQLVESGGGLVQAGGSLRLSCAASGSTFSENAMGWYRQAPGKERELVADITNGGSTNYADSVKGRFTISRDNAKNTVYLQMNSLKPEDTAVYYCATDSYPGLNPDFDYWGQGTQVTVSS
  polyreactivity (PSR sort gate): low polyreactivity

## QVQLVESGGGLVQAGGSLRLSCAASGSTFSEYVMGWYRQAPGKERELVAVITTGTSTNYADSVKGRFTISRDNAKNTVYLQMNSLKPEDTAVYYCNAEYLYGVRYHDYWNDFDYWGQGTQVTVSS
  polyreactivity (PSR sort gate): low polyreactivity

## QVQLVESGGGLVQAGGSLRLSCAASGSTFSFNDRGWYRQAPGKERELVADISCSGDTTYADSVKGRFTISRDNAKNTVYLQMKSLKPEATAVYYCAARQYFRNYVYWGQGTQVTVSS
  polyreactivity (PSR sort gate): high polyreactivity

## QVQLVESGGGLVQAGGSLRLSCAASGSTFSFYAMGWYRQAPGKERELVAAISSRGGSTYYADSVKGRFTISRDNAKNTVYLQMNSLKPEDTAVYYCAVRRYPHFYHRGGFNFNGYDYWGQGTQVTVSS
  polyreactivity (PSR sort gate): high polyreactivity

## QVQLVESGGGLVQAGGSLRLSCAASGSTFSGNAMGWYRQAPGKERELVASITDGGNTYYADSVKGRFTISRDNAKNTVYLQMNSLKPEDTAVYYCAAEILWGGYDYWGQGTQVTVSS
  polyreactivity (PSR sort gate): low polyreactivity

## QVQLVESGGGLVQAGGSLRLSCAASGSTFSGNAMGWYRQAPGKEWELGATITITGGSTYYADSVKGRFTISRDNAKNTVYLQMNSLKPEDTAVYYCAKDYYAYSDYDYWGQGTQVTVSS
  polyreactivity (PSR sort gate): low polyreactivity

## QVQLVESGGGLVQAGGSLRLSCAASGSTFSGYAKGWYRQAPGKERELVAAINWNGGRTYYADSVKGRFTISRDNAKNTVYLQMNSLKPEDTAVYYCNKQSPRGRSAVYKYDYWGQGTQVTVSS
  polyreactivity (PSR sort gate): high polyreactivity

## QVQLVESGGGLVQAGGSLRLSCAASGSTFSGYAMGWDRQAPGNERELVAAITSGGITNYADSVKGRFSLSRDNAKNTVYLQMNSLKPEDTAVYYCAKSVSGIGVGYDYWGQGTQVTVSS
  polyreactivity (PSR sort gate): low polyreactivity

## QVQLVESGGGLVQAGGSLRLSCAASGSTFSGYMGWNRQAPGKERELVAAITSGGSTNYADSVKGRFTISRDNAENTVYLQMNSLKPEDTAVYYCAAQGRWLGWRGYDYWGLGTQVTVSS
  polyreactivity (PSR sort gate): high polyreactivity

## QVQLVESGGGLVQAGGSLRLSCAASGSTFSHNAMGWSIQAPWKERELLASISSGANTYYADSVKGRFTISRDNAKNTVYLHMNSLKPEVTAVYYCAAGAHAYDHYSWFYFRMHYWGQGTQVTVSS
  polyreactivity (PSR sort gate): low polyreactivity

## QVQLVESGGGLVQAGGSLRLSCAASGSTFSHNAMGWYRQAPGKERELVAAIRWNGGSTHYADSVKVRFTISRDNAKNTVYLQMNSLKPEDTAVYYCAKENHYFTQGYGYWGQGTQVTVSS
  polyreactivity (PSR sort gate): low polyreactivity

## QVQLVESGGGLVQAGGSLRLSCAASGSTFSHYAMGWYRQAPGKERELVATITYSGGSTYYADSVKGRFTISRDNAKNTVYLQMNSMKPEDTAVYYCAARPRFITYKRYYWGQGTQVTVSS
  polyreactivity (PSR sort gate): high polyreactivity

## QVQLVESGGGLVQAGGSLRLSCAASGSTFSIYAMGWYRPAPGKERELVAAITGTVGSTYYADSVKGRFTISRDNAKNTVYLQMNSLKPEDTAVYYCAARQVNYDYDYWGQGTQVTVSS
  polyreactivity (PSR sort gate): low polyreactivity

## QVQLVESGGGLVQAGGSLRLSCAASGSTFSIYAMGWYRQAPGKEREFVAAISSSSGSTYYADSVKGRFTISRDNAMNTVYLQMNSLKPEDTAVYYCIRRYRRGGVKGVYYWGQGTQVTVSS
  polyreactivity (PSR sort gate): high polyreactivity

## QVQLVESGGGLVQAGGSLRLSCAASGSTFSIYAMGWYRQAPGKERELVAAISSDSTYYADSVKGRFTISRDNAKNSVYLQMNSLKPEDTAVYYCAADPYFPKYYYWGQGTQVTVSS
  polyreactivity (PSR sort gate): low polyreactivity

## QVQLVESGGGLVQAGGSLRLSCAASGSTFSIYAMGWYRQAPGKERELVAAISSDSTYYADSVKGRFTISRDNAKNTVYLQMNSLKPEDTAVYYCAADPYFPKYYYWGQGTQVTVSS
  polyreactivity (PSR sort gate): low polyreactivity

## QVQLVESGGGLVQAGGSLRLSCAASGSTFSKNAMAWYRQAPGKERELVASISSSGGSTYYADSVKGRFTISRDTAKNTVYLQLNSLKPEDTAVSYCATRRGRGYYYWGQGTQVTVSS
  polyreactivity (PSR sort gate): high polyreactivity

— the nanobody polyreactivity screen of Harvey et al. (2022)
